Laboratory results as given in patent US20080003617A1.

Molecular target: A1 domain of von Willebrandt factor (vWf), His-tagged A1 antigen (human) (UniProt P04275)
Assay: flow cytometry, yeast-displayed scFv with His-tagged A1 and Alexa-488 anti-His tag

scFv of the murine NMC-4 antibody, displayed on yeast (pYD-NMC4-scFv in EBY100) (from UniProt P32781 19-87)
percent of cells positive for A1 binding: 50 to 70%
